# T1: AMH truncated antigen 31-44 (human)
# T1 sequence (peptide): AVGTSGLIFREDLD
# T2: AMH truncated antigen 36-44 (human)
# T2 sequence (peptide): GLIFREDLD
# T3: AMH truncated antigen 37-43 (human)
# T3 sequence (peptide): LIFREDL
# T4: AMH truncated antigen 38-44 (human)
# T4 sequence (peptide): IFREDLD
# T5: AMH truncated antigen 39-45 (human)
# T5 sequence (peptide): FREDLDW
# T6: AMH truncated antigen 41-47 (human)
# T6 sequence (peptide): EDLDWPP
# T7: AMH truncated antigen 41-50 (human)
# T7 sequence (peptide): EDLDWPPGSP
# T8: AMH truncated antigen 41-51 (human)
# T8 sequence (peptide): EDLDWPPGSPQ
# T9: AMH truncated antigen 41-55 (human)
# T9 sequence (peptide): EDLDWPPGSPQEPLC
# T10: AMH truncated antigen 42-50 (human)
# T10 sequence (peptide): DLDWPPGSP
# T11: AMH truncated antigen 42-51 (human)
# T11 sequence (peptide): DLDWPPGSPQ
# T12: AMH truncated antigen 61-75 (human)
# T12 sequence (peptide): GDSNGSSSPLRVVGA
# T13: AMH3647-14 (Little mole rat sequence) (Little mole rat)
# T13 sequence (peptide): GLIFLQDGMWSP
# T14: AMH3647-21 (Sheep sequence) (Sheep)
# T14 sequence (peptide): TLIFQQGWDWPL
# T15: AMH3647-26 (Monkey sequence) (Monkey)
# T15 sequence (peptide): GLIFREDLGWPP
# T16: AMH3647-5 (Diademed Sifaka sequence) (Diademed Sifaka)
# T16 sequence (peptide): GLIFHEDWDWPP
# T17: AMH truncated antigen 256-355aa (human)
# T17 peptide: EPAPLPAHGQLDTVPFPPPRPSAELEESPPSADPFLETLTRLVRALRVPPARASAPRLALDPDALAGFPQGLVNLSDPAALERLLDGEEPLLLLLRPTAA
# T18: AMH truncated antigen 341-440aa (human)
# T18 peptide: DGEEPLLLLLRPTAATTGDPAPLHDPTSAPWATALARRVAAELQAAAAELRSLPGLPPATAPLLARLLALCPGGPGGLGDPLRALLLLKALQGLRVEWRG
# T19: AMH truncated antigen 426-525aa (human)
# T19 peptide: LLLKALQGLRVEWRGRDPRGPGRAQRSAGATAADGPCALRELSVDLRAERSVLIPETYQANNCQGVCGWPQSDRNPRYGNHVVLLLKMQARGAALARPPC
# T20: AMH truncated antigen 461-560aa (human)
# T20 peptide: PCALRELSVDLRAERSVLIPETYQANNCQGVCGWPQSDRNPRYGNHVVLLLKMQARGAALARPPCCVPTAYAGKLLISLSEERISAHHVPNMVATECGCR
# T21: recombinant human AMH (anti-Mullerian Hormone) (human, UniProt P03971 25-560)
# T21 construct: range 1-560; also called AMH antigen; AMH (1-560)
# T21 sequence (looked up): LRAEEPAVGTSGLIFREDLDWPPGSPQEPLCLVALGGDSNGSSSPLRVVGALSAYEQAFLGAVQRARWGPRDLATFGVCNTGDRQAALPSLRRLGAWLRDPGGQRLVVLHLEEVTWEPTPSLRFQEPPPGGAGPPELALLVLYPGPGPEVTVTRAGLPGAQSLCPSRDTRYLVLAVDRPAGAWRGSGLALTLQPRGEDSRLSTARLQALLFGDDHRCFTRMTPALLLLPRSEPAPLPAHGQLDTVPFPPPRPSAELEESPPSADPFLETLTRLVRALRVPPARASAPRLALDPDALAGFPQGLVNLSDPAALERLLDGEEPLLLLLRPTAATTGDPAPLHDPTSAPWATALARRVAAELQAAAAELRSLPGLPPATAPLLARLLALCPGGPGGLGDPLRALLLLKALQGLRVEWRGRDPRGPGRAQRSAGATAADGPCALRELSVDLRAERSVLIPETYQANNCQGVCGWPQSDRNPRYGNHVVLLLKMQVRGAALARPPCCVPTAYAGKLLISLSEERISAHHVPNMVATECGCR
# T22: AMH truncated antigen 26-85 aa (human)
# T22 peptide: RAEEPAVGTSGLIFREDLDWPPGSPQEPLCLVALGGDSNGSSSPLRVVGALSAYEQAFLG
# T23: AMH truncated antigen 86-185aa (human)
# T23 peptide: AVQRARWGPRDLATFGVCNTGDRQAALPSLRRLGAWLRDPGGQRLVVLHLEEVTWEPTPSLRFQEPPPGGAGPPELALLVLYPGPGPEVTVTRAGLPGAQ
# T24: AMH truncated antigen 171-270aa (human)
# T24 peptide: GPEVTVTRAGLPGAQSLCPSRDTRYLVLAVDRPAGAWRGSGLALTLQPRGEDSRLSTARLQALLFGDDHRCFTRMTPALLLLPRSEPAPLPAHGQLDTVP
# B1: monoclonal antibody C9F2-2 (antibody, V domains shown)
# VH: EVQLVESGGGLVKPGGSLKLSCAASGFAFSTYDMSWVRQTPEKRLEWVAYISPGGGATYYPDTVKGRFTISRDNAKNTLYLQMTSLKSEDTAMYYCAGRRDYYGMDYWGQGTSVTVSS
# VL: DVVMTQTPLSLPVSLGDQASISCRSSQSLVHSNGNTYLHWYLQKPGQSPKLLIYKVSNRFSGVPDRFSGSGSGTDFTLKISRVEAEDLGVYFCSQSTHVPWTFGGGTKLEIK
# notes: Mouse hybridoma antibody purified from ascites; the tie is indirect; also called hybridoma CCTCC NO: C2018183
# Key:
# Test in all cases: competition ELISA, antibody preincubated with target, AMH-coated plate
# [1] = molecular target: T1, AMH truncated antigen 31-44 (human)
# [2] = molecular target: T2, AMH truncated antigen 36-44 (human)
# [3] = molecular target: T3, AMH truncated antigen 37-43 (human)
# [4] = molecular target: T4, AMH truncated antigen 38-44 (human)
# [5] = molecular target: T5, AMH truncated antigen 39-45 (human)
# [6] = molecular target: T6, AMH truncated antigen 41-47 (human)
# [7] = molecular target: T7, AMH truncated antigen 41-50 (human)
# [8] = molecular target: T8, AMH truncated antigen 41-51 (human)
# [9] = molecular target: T9, AMH truncated antigen 41-55 (human)
# [10] = molecular target: T10, AMH truncated antigen 42-50 (human)
# [11] = molecular target: T11, AMH truncated antigen 42-51 (human)
# [12] = molecular target: T12, AMH truncated antigen 61-75 (human)
# [13] = molecular target: T13, AMH3647-14 (Little mole rat sequence) (Little mole rat)
# [14] = molecular target: T14, AMH3647-21 (Sheep sequence) (Sheep)
# [15] = molecular target: T15, AMH3647-26 (Monkey sequence) (Monkey)
# [16] = molecular target: T16, AMH3647-5 (Diademed Sifaka sequence) (Diademed Sifaka)
# [17] = molecular target: T17, AMH truncated antigen 256-355aa
# [18] = molecular target: T18, AMH truncated antigen 341-440aa
# [19] = molecular target: T19, AMH truncated antigen 426-525aa
# [20] = molecular target: T20, AMH truncated antigen 461-560aa
# [21] = molecular target: T21, recombinant human AMH (anti-Mullerian …)
# [22] = molecular target: T22, AMH truncated antigen 26-85 aa
# [23] = molecular target: T23, AMH truncated antigen 86-185aa
# [24] = molecular target: T24, AMH truncated antigen 171-270aa
binder,measurement,setting,value
B1,percent inhibition,[1],38%
same,percent inhibition,[2],32%
same,percent inhibition,[3],57%
same,percent inhibition,[4],33%
same,percent inhibition,[5],68%
same,percent inhibition,[6],64%
same,percent inhibition,[7],65%
same,percent inhibition,[8],71%
same,percent inhibition,[9],68%
same,percent inhibition,[10],57%
same,percent inhibition,[11],60%
same,percent inhibition,[12],35%
same,percent inhibition,[13],29%
same,percent inhibition,[14],10%
same,percent inhibition,[15],61%
same,percent inhibition,[16],32%
same,percent inhibition,[17],1%
same,percent inhibition,[18],10%
same,percent inhibition,[19],1%
same,percent inhibition,[20],6%
same,percent inhibition,[21],92%
same,percent inhibition,[22],99%
same,percent inhibition,[23],2%
same,percent inhibition,[24],0%
